This note sets out measurements from patent US20240133885A1.

Assay [1] concerns the target J6MO-(vL-vH)-MYC-28z-T2A-Pac. The assay can be described thus: NLuc assay, supernatant on NK92MI cells expressing the CAR (no CAR 89).
Assay [2] deals with HIV1 envelop glycoprotein gp120 (HIV1). The assay can be described thus: Luc assay, supernatant on HL2/3 cells expressing HIV1 gp120 (control 5700).
Assay [3] concerns the target Lym1. The experiment in a line: Luc assay, supernatant on BC-1 cells.
Assay [4] deals with Lym1. The experiment in a line: Luc assay, supernatant on BC-3 cells.
The target of assay [5] is Lym1. The experiment in a line: Luc assay, supernatant on MM1S cells.
For assay [6], the target named is Lym1. The assay can be described thus: Luc assay, supernatant on Raji cells.
Assay [7] concerns the target Lym1. The assay can be described thus: Luc assay, supernatant on U266 cells.
Assay [8] concerns the target Lym1. The experiment in a line: Luc assay, supernatant on BV173 cells.
Assay [9] deals with Lym1. The experiment in a line: Luc assay, supernatant on JSC-1 cells.
In assay [10] the target is Lym1. The assay can be described thus: Luc assay, supernatant on BCBL-1 cells.
Assay [11] addresses CD20-GA10-(vL-vH)-MYC-BBz-T2A-PAC. The experiment in a line: Luc assay, supernatant on Jurkat cells expressing the CAR (parental 484).
Assay [12] shares this target. The assay can be described thus: Luc assay, supernatant on NK92MI cells expressing the CAR (parental 510).
The target in assay [13] is CD200R-huDx182-(vL-vH)-Myc-BBz-T2A-PAC. The experiment in a line: NLuc assay, supernatant on 293FT cells transfected with the CAR.
Assay [14] concerns the target FMC63-(vL-vH)-Myc-BBz-T2A-Pac. The description is as above.
In assay [15] the target is Amyloid. The assay can be described thus: Luc assay, supernatant on BC-3 cells.
The target of assay [16] is Amyloid. The assay can be described thus: Luc assay, supernatant on MM1S cells.
For assay [17], the target named is Amyloid. The experiment in a line: Luc assay, supernatant on U266 cells.
The target of assay [18] is Amyloid. The assay can be described thus: Luc assay, supernatant on BV173 cells.
Assay [19] deals with Amyloid. The assay can be described thus: Luc assay, supernatant on JSC-1 cells.
The target in assay [20] is Amyloid. The assay can be described thus: Luc assay, supernatant on BCBL-1 cells.

For the substance “BCMA-ECD-GGSG-NLuc-4xFlag-2xStreptag-8xHis-T2A-Pac (from UniProt Q02223 1-54) (receptor)”, the Mean Luc activity in assay [1] came out at 602.
Turning to “CD8SP-HIV1-3BNC117-(vL-vH)-GGSG-NLuc-4xFLAG-x2STREP-8xHis-T2A-PAC (scFv)”, the Mean Luc activity in assay [2] was found to be 8870.
On the same count and under the same terms, then “CD8SP-HIV1-VR-C01-(vL-vH)-GGSG-NLuc-4xFLAG-x2STREP-8xHis-T2A-PAC (scFv)”, with 9330; and “CD8SP-HIV1-X5-(vL-vH)-GGSG-NLuc-4xFLAG-x2STREP-8xHis-T2A-PAC (scFv)”, with 12900.
As for CD8SP-Lym1(vL-vH)-GGSG-NLuc-AcV5 (scFv), the MEAN LUC ACTIVITY in [3] stood at 7390; in assay [4] it was 11700; in [5], 1580; in assay [6] it was 580000; in [7] it was 258; in assay [8], 5560. The figures for the MEAN LUC ACTIVITY in [9] and in assay [10] were 6770 and 7780, respectively. For the same substance, the Luc activity was found to be 11700 in [4]; 1580 in [5]; 258 in assay [7]; 5560 in assay [8]; 6770 in [9]; 7780 in [10].
On to “CD20-ECx2-ECD-GGSG-TurboLuc16-4xFlag-2xStreptag-8xHis-T2A-Pac (receptor)”, for which the Mean Luc activity in [11] was determined as 7610; in assay [12] it was 1420.
Take “CD200R-ECD-GGSG-NLuc-4xFlag-2xStreptag-8xHis-T2A-Pac (receptor)”: the Mean Luc activity in assay [13] worked out at 18700.
The substance “SLAMF7-CS1-ECD-GGSG-NLuc-4xFlag-2xStreptag-8xHis-T2A-Pac (receptor)” came in with a Mean Luc activity in assay [14] of 37800.
For “SP-Amyloid-158-(vL-vH)-GGSG-NLuc-4xFLAG-x2STREP-8xHis-T2A-PAC (scFv)”, the Luc activity in assay [15] worked out at 3110; in [16] it was 8170; in assay [17] it was 3930; in assay [18], 6220; in [19], 8230; in [20], 5690.
